Earlier results in publication PMC3736882.
pKd: −log10 of the molar value.

Target: Factor VIII (Homo sapiens) (UniProt P00451)
Sequence of UniProt P00451 (P00451 760-1332): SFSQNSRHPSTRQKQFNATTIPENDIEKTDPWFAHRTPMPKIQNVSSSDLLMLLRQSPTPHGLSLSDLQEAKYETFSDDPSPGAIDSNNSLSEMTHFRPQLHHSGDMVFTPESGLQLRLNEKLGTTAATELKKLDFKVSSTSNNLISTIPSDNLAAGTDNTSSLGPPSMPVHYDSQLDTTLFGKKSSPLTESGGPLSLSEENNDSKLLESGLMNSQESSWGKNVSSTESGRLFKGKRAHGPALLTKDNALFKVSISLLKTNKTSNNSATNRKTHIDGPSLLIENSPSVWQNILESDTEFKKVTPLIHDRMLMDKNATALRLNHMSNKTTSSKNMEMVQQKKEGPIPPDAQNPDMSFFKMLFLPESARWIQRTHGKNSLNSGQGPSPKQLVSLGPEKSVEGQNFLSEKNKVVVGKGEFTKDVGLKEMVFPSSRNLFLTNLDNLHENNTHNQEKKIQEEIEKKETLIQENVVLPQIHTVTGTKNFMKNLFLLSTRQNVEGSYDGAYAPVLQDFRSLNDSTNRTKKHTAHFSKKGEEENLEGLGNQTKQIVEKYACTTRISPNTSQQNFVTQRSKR

- pKd: > 9.00
Substance: von Willebrand factor (from UniProt P04275)
